From patent publication US20100129369A1 (Eli Lilly, published 2010)

Legend:
Human c-Met-Flis-Fc ECD [1] = biological target: T1, Human c-Met-Flis-Fc ECD (human); assay: ELISA, coated ECD-Fc, antibody 0.060 ng/mL
T1 construct: also called human c-Met extracellular domain (ECD)-Fc-Flis fusion; Human cMet-ECD-Fc-Flis
Protocol: (§1) Wells of 96-well EIA/RIA high binding plates (Costar, #2592) are coated with 100 μL of 1 μg/mL human c-Met extracellular domain (ECD)-Fc-Flis fusion (SEQ ID NO:72), RON-ECD-Fc (R&D Systems, #1947-MS), or PlexinA2-ECD-Fc (Abnova, Taipei, Taiwan #H00005362-P01) in coating buffer (BioFX Labs, # COAT-1000-01) overnight at 4° C. […] After the plates are washed, 100 μL/well of substrate solution (BioFx, #TMBW-1000-01) are added and the plates are incubated for 10 min. at room temperature. 100 μL/well of stop solution (BioFx, # LSTP-1000-01) are added to stop the reaction. The colorimetric signals are developed and read at 450 nm using a SpectraMax 190 plate reader (Molecular Devices, Sunnyvale, Calif.). c-Met antibody binding to c-Met, RON and PlexinA2 ECDs is proportional to color signal production.

RON-ECD-Fc [2] = biological target: T2, RON-ECD-Fc (human, UniProt Q04912 25-957); assay: ELISA, coated ECD-Fc, antibody 0.060 ng/mL
T2 construct: extracellular domain; Bought reagent; not shown: Fc part of the bought fusion
T2 sequence (looked up): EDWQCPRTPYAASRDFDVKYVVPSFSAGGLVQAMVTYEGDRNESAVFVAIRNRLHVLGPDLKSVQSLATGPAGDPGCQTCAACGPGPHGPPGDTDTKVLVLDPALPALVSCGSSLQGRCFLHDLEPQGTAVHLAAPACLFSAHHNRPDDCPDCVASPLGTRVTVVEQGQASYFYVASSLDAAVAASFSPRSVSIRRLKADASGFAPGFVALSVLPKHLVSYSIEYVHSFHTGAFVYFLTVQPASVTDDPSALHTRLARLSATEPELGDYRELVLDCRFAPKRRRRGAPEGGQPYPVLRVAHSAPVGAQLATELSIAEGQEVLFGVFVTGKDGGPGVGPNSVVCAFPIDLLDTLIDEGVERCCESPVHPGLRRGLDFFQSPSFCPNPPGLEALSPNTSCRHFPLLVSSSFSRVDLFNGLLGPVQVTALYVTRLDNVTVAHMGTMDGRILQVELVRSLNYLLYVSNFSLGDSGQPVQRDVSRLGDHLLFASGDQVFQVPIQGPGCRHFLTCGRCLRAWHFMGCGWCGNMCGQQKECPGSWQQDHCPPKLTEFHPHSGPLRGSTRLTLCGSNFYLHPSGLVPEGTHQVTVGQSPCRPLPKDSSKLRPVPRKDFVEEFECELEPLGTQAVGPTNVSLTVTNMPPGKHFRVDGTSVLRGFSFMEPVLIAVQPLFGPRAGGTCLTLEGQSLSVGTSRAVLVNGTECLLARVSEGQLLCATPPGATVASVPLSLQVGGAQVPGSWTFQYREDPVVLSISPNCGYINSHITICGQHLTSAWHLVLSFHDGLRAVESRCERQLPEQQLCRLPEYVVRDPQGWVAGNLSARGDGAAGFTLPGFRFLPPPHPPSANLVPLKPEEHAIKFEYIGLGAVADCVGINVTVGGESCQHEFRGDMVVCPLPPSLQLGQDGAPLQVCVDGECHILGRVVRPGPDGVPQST
Protocol: as §1

PlexinA2-ECD-Fc [3] = biological target: T3, PlexinA2-ECD-Fc (human, UniProt O75051 35-1237); assay: ELISA, coated ECD-Fc, antibody 0.060 ng/mL
T3 construct: extracellular domain; Bought reagent
T3 sequence (looked up): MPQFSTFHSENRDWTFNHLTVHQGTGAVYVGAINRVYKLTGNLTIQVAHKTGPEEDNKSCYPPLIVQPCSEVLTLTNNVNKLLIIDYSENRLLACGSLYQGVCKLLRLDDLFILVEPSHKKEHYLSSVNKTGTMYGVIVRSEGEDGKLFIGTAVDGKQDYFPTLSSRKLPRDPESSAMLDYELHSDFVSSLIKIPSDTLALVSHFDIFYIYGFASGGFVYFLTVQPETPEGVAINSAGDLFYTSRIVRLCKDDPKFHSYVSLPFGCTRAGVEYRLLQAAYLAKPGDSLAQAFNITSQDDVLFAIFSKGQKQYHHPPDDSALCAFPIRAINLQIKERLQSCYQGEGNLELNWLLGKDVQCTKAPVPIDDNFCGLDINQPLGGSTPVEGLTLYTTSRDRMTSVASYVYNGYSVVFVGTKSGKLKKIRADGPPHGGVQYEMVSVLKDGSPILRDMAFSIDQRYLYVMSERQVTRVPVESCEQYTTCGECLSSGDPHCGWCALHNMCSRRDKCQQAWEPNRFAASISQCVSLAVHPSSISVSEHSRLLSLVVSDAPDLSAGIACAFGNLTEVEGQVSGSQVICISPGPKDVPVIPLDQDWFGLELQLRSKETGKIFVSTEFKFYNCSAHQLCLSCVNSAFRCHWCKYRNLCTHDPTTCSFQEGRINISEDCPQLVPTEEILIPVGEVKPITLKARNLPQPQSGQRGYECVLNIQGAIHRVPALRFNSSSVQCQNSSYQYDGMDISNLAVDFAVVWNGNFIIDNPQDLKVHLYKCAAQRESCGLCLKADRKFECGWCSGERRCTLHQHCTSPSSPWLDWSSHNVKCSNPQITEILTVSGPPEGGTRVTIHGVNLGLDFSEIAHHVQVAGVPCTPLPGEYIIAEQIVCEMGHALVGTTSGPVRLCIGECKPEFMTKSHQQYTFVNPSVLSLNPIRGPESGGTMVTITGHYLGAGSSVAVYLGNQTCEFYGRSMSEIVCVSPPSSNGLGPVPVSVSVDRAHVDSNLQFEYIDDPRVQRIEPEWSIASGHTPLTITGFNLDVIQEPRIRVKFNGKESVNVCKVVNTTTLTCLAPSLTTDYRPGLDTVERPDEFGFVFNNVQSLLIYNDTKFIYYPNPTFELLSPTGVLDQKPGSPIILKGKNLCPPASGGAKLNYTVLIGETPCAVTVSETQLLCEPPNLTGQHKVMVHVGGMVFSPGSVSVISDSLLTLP
Protocol: as §1

Human c-Met-Flis-Fc ECD [4] = biological target: T1, Human c-Met-Flis-Fc ECD; assay: ELISA, coated ECD-Fc, antibody 77.160 ng/mL
Protocol: as §1

RON-ECD-Fc [5] = biological target: T2, RON-ECD-Fc; assay: ELISA, coated ECD-Fc, antibody 77.160 ng/mL
Protocol: as §1

PlexinA2-ECD-Fc [6] = biological target: T3, PlexinA2-ECD-Fc; assay: ELISA, coated ECD-Fc, antibody 77.160 ng/mL
Protocol: as §1

RON-ECD-Fc [7] = biological target: T2, RON-ECD-Fc; assay: ELISA, coated ECD-Fc, antibody 0.357 ng/mL

T1 sequence (chain, as listed by the source limits assumed): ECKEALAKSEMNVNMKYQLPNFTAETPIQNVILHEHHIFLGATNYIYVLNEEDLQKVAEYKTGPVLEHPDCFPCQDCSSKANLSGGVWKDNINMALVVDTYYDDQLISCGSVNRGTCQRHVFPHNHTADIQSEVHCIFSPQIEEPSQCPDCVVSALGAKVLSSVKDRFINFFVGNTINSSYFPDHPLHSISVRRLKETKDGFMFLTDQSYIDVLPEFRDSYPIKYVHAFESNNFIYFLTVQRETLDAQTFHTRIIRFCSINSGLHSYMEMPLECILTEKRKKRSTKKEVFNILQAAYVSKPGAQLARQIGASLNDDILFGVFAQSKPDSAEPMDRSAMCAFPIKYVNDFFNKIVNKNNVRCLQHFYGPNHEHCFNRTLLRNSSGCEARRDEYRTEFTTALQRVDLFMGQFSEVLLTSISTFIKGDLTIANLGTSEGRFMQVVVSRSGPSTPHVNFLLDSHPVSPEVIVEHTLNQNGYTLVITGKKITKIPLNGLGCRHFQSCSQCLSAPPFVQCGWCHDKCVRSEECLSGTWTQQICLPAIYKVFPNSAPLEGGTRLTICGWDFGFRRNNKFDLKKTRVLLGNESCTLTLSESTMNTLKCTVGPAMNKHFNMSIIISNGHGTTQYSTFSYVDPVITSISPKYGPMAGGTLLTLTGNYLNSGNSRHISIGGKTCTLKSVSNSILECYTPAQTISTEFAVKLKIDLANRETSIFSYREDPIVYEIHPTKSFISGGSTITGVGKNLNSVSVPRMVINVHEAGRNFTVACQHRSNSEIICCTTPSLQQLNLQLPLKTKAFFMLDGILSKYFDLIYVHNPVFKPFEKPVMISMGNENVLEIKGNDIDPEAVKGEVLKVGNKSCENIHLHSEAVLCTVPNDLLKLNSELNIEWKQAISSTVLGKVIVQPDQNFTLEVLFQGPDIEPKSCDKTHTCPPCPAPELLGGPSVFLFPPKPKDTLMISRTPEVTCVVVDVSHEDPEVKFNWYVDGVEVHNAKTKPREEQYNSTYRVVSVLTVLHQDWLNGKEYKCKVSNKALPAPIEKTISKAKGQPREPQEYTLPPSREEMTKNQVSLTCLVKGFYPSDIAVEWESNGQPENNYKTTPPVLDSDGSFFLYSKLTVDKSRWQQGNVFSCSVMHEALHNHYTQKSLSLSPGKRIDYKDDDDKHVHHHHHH

B1: C8-6 (antibody, human IgG2, kappa, V domains shown)
VH: QVQLVQSGAEVKKPGASVKVSCKASGYTFTDYYMHWVRQAPGQGLEWMGRVNPNRGGTTYNQKFEGRVTMTTDTSTSTAYMELRSLRSDDTAVYYCARTNWLDYWGQGTTVTVSS
VL: DIQMTQSPSSLSASVGDRVTITCSVSSSVSSIYLHWYQQKPGKAPKLLIYSTSNLASGVPSRFSGSGSGTDFTLTISSLQPEDFATYYCIQYSGYPLTFGGGTKVEIKR
notes: Called IgG4, kappa; also called Mab C8-6
- Average A450 nm (Human c-Met-Flis-Fc ECD [1]): 0.551 A450 nm
- Average A450 nm (RON-ECD-Fc [2]): 0.087 A450 nm
- Average A450 nm (PlexinA2-ECD-Fc [3]): 0.096 A450 nm
- Average A450 nm (Human c-Met-Flis-Fc ECD [4]): 4 A450 nm
- Average A450 nm (RON-ECD-Fc [5]): 0.09 A450 nm
- Average A450 nm (PlexinA2-ECD-Fc [6]): 0.078 A450 nm
- Average A450 nm (RON-ECD-Fc [7]): 0.08 A450 nm
